Data on 1 molecule can be found in US6395306 (PAN PACIFIC PHARMACEUTICALS, dated 2002).

For orientation: IC50 means the concentration needed to halve the response being measured.

The experiment addresses T1, CXCR2 (human, UniProt P25025 1-360).
T1 sequence: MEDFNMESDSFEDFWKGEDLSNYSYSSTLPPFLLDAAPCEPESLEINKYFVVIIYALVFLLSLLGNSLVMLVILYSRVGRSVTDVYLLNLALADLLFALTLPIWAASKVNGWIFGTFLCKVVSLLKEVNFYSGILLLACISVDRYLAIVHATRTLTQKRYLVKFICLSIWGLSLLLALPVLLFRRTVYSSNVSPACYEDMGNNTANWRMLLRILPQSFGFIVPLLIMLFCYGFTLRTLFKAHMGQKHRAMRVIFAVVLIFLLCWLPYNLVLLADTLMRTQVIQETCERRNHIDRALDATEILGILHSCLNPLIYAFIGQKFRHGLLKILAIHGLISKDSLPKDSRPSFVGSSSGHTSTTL

B1: PX3.101 protein purified from honeybee venom (other)
chain: GGFGGFGGFGGLGGRGKCPSNEIFSRCDGRCQRFCPNVVPKPLCIKICAPGCVCRLGYLRNKKKVCVPRSKCG
Regarding B1, 500 nM corresponded to half-maximal inhibition (IC50).
